# Test results taken from patent US20020041865A1.
# Columns and labels:
# [1] = biological target: H520C9sFv-hIL-2 fusion protein (human) (UniProt P60568); assay: cell-based or functional assay
# [2] = biological target: recombinant human IL-2 (human) (UniProt P60568); assay: cell-based or functional assay
# [3] = biological target: p185, the human HER-2/neu (c-erbB2) proto-oncogene product (human) (UniProt P04626); assay: Scatchard analysis on SK-Br-3 cells
binder,measurement,setting,value
"mouse anti-human IL-2 mAb MAB202 (antibody, from another filing, V domains shown) VH: DVRLVESGGGLVKPGGSLKLSCAAYGFTFSSYTLAWVRQTPEKRLEWVAAIDSSSYTYSPDTVRGRFTISRDNAKNTLYLQMSSLKSEDTAMYYCTRDSNWDALDYWGQGTSVIVSS VL: DIVMTQSQKFMSTSVGDRVSVTCKASQNVGTNVGWYQQKPGQSPKALIYSASFRYSGVPDRFTGSGSGTDFSLTISNVKSEDLAEYFCQQYYTYPYTFGGGTKLEIK",50% inhibition of [^3H]-thymidine incorporation in CTLL-2 cells (Neutralization Dose 50) for the same dose of H520C9sFv-hIL-2,[1],0.128 µg/mL
same,50% inhibition of [^3H]-thymidine incorporation in CTLL-2 cells (Neutralization Dose 50) for 2 ng/ml rhIL-2,[2],0.076 µg/mL
"murine monoclonal antibody 520C9 (antibody, from another filing, V domains shown) VH: EIQLVQSGPELKKPGETVKISCKASGYTFANYGMNWMKQAPGKGLKWMGWINTYTGQSTYADDFKERFAFSLETSATTAHLQINNLRNEDSATYFCARRFGFAYWGQGTLVSVSA VL: DIQMTQSPSSLSASLGERVSLTCRASQDIGNSLTWLQQEPDGTIKRLIYATSSLDSGVPKRFSGSRSGSDYSLTISSLESEDFVVYYCLQYAIFPYTFGGGTNLEIK",Ka,[3],3.5e+08 M⁻¹
"proteolytically cleaved Fab fragment of 520C9 (Fab, from another filing, V domains shown) VH: EIQLVQSGPELKKPGETVKISCKASGYTFANYGMNWMKQAPGKGLKWMGWINTYTGQSTYADDFKERFAFSLETSATTAHLQINNLRNEDSATYFCARRFGFAYWGQGTLVSVSA VL: DIQMTQSPSSLSASLGERVSLTCRASQDIGNSLTWLQQEPDGTIKRLIYATSSLDSGVPKRFSGSRSGSDYSLTISSLESEDFVVYYCLQYAIFPYTFGGGTNLEIK",Ka,[3],6.7e+07 M⁻¹
